The source of these data is paper PMC8979947.

Experiment [1] has as its target talin R3-IVVI domain.
The target in experiment [2] is talin R3-IVVI domain. The source holds these as a separate data set.
Experiment [3] addresses talin R3-IVVI domain. This is another data set of the same source.
Experiment [4] addresses talin R3-IVVI domain. This is another data set of the same source.

In the case of “Hsp40, human recombinant protein (from UniProt P25685 1-340) (natural protein)”, the intersection force of R3-IVVI, chevron plot, with Hsp40; control 9.7 pN in the experiment with talin R3-IVVI domain [1] is 7.8 pN.

With “DnaK (from UniProt P0A6Y8 1-638) (natural protein)”, in the experiment with talin R3-IVVI domain [2], the unfolding force (confirmed as intersection force of the chevron plot) of R3-IVVI with DnaK + DnaJ + ADP (DnaKJ-ADP) is 6.3 pN; the unfolding force (confirmed as intersection force of the chevron plot) of R3-IVVI with DnaK and ATP; ~6 pN with apo-DnaK is 7.6 pN. The molecule also registered an intersection force (equal unfolding and refolding rates) of R3-IVVI, force-clamp chevron plot, with 3 µM apo-DnaK; control 9.7 pN with talin R3-IVVI domain [3] of 6 pN.

For “Hsp70, human recombinant protein (from UniProt P0DMV8 1-641) (natural protein)”, in the experiment with talin R3-IVVI domain [4], the half-point force of R3-IVVI with Hsp70 was determined as 7.2 pN; the half-point force of R3-IVVI with Hsp70 and its inhibitor pifithrin-µ (PFT-µ, binds the substrate-binding domain of Hsp70) was 9.5 pN. The molecule further showed an intersection force of R3-IVVI, chevron plot, with Hsp70; control 9.7 pN in the experiment with talin R3-IVVI domain [1] of 7.2 pN.

In the experiment with talin R3-IVVI domain [3], “DnaJ (from UniProt P08622 1-376) (natural protein)” had an intersection force (equal unfolding and refolding rates) of R3-IVVI, force-clamp chevron plot, with 1 µM DnaJ; control 9.7 pN of 7.9 pN.

B1: oxidized DsbA (enzyme)
chain: AQYEDGKQYTTLEKPVAGAPQVLEFFSFFCPHCYQFEEVLHISDNVKKKLPEGVKMTKYHVNFMGGDLGKDLTQAWAVAMALGVEDKVTVPLFEGVQKTQTIRSASDIRDVFINAGIKGEEYDAAWNSFVVKSLVAQQEKAAADVQLRGVPAMFVNGKYQLNPQGMDTSNMDVFVQQYADTVKYLSEKK
modifications: oxidized (0.3% H2O2 overnight)
In turn, B1 registered an intersection force (equal unfolding and refolding rates) of R3-IVVI, force-clamp chevron plot, with 60 µM DsbA; control 9.7 pN with talin R3-IVVI domain [3] of 14.9 pN.
